According to patent publication US7304033 (Bristol-Myers Squibb, dated 2007):

Legend:
CD86Ig = target: T1, CD86Ig (UniProt P42081 24-247); experiment: SPR, CD86Ig immobilized, monomeric analytes
T1 construct: extracellular domain; also called soluble CD86Ig; B7-2 Ig
Protocol: (§1) Association and disassociation analyses were performed using BIA evaluation 2.1 Software (Pharmacia). Association rate constants $kon$ were calculated in two ways, assuming both homogenous single-site interactions and parallel two-site interactions. For single-site interactions, $kon$ values were calculated according to the equation $R_t=Req(1-\exp^{-ks(t-t_0)})$, where R_t is a response at a given time, t; $Req$ is the steady-state response; t_0 is the time at the start of the injection; and $k_s=dR/dt=kon \cdot Ckoff$, and where C is a concentration of analyte, calculated in terms of monomeric binding sites. For two-site interactions $kon$ values were calculated according to the equation $R_t=Req1(1-\exp^{-ks1(t-t_0)})+Req2(1-[…])$. For each model, the values of $kon$ were determined from the calculated slope (to about 70% maximal association) of plots of k_s versus C.

CD80Ig = target: T2, CD80Ig (UniProt P33681 35-242); experiment: SPR, CD80Ig immobilized, monomeric analytes
T2 construct: extracellular domain; also called soluble CD80Ig; B7-1 Ig
Protocol: as §1

T2 sequence (P33681 whole entry, the tested form may be a part): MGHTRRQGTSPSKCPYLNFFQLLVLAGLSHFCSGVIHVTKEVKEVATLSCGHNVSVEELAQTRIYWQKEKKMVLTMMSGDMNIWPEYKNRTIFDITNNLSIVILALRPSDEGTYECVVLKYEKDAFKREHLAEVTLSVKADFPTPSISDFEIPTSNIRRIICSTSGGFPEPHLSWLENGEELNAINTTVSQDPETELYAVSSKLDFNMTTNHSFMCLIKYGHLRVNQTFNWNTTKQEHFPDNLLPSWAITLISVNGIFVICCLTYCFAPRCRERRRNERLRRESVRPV
T1 sequence (P42081 24-247): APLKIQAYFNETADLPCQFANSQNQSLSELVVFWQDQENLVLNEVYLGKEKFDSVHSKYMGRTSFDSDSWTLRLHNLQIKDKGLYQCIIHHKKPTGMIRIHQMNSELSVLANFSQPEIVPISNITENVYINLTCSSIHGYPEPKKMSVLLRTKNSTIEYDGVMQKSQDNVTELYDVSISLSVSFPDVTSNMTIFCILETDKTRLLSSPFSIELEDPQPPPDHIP

fold higher affinity than CTLA4X120S (CD86Ig): ~2 fold | fold slower rate of dissociation than CTLA4X120S (CD86Ig): ~3 fold | fold higher affinity than CTLA4X120S (CD80Ig): ~2 fold | fold slower rate of dissociation than CTLA4X120S (CD80Ig): ~3 fold
B1: L104EA29YXC120S (receptor)
chain: MHVAQPAVVLASSRGIASFVCEYASPGKYTEVRVTVLRQADSQVTEVCAATYMMGNELTFLDDSICTGTSSGNQVNLTIQGLRAMDTGLYICKVELMYPPPYYEGIGNGTQIYVIDPEPSPDSD
notes: Monomeric; prepared in an identical manner to CTLA4XC120S; also called single chain L104EA29Y extracellular domain
